US20230034906A1 (TRINOMAB BIOTECH, published 2023)

T1: gB_Towne protein with N383 mutated into glutamine (human cytomegalovirus, strain Towne, UniProt F5HB53 25-700)
T1 chain: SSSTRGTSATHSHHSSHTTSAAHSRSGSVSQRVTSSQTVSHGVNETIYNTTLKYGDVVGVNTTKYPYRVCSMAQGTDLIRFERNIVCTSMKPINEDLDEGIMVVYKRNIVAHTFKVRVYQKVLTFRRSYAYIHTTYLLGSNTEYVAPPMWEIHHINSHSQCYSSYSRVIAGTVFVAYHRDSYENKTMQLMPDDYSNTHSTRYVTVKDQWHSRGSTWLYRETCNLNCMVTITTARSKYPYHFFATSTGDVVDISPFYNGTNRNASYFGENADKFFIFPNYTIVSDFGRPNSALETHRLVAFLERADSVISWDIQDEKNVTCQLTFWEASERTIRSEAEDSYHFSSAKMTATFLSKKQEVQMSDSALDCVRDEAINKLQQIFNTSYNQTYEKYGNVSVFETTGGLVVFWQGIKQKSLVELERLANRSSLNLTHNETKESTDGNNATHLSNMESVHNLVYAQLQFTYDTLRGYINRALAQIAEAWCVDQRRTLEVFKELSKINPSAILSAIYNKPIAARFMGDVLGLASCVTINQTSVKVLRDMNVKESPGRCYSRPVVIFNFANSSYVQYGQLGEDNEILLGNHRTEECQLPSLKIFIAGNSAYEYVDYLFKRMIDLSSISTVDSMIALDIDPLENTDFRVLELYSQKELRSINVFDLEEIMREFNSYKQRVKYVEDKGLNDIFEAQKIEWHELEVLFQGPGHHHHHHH

T2: homologous sequence of gB glycoprotein of 56 virus strains (gB_Con. Strain) (human cytomegalovirus (homologous …, UniProt P06473 25-699))
T2 construct: C-terminal tags are part of the entry
T2 chain: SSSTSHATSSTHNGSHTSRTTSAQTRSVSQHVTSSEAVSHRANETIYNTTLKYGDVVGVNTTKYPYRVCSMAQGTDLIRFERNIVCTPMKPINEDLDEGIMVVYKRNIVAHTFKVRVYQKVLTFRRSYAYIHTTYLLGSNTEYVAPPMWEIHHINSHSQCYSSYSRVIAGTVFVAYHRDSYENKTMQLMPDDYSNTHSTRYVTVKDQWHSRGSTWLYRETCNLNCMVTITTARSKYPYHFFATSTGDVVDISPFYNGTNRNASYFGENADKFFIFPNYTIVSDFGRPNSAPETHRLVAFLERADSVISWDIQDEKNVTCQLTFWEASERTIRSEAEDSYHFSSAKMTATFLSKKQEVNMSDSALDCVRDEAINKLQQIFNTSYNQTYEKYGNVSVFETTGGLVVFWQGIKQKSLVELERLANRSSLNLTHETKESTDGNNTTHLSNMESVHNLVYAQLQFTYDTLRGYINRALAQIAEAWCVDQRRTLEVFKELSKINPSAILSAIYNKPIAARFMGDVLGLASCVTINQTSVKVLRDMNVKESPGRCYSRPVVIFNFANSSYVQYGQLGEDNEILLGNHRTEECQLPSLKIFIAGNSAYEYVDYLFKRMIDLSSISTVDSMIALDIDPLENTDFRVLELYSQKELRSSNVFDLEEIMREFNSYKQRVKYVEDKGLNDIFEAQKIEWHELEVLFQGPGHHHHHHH

B1: TRN1017 (antibody, V domains shown)
VH: QVLLVQSGGGLVQPGGSLRLACETSGFTFRHYWMHWVRQAPGKGLVWLSSIHGSGTTTRYADSVKGRFTISRDNAKNILFLQINSPRPEDTATYYCVRDDYTSGYNWGQGAFVTVSS
VL: QSALTQPASVSGSRGQSITIPCTGSRSDVGGYNYVSWYQQRPGKAPKLILYDVSHRPSGISDRFSGSKLGDTASLTISGLRDEDEADYYCSSYTTKSTLYVFGTGTTVSVLG
notes: lambda light chain; expressed in HEK293 cells
B2: TRN1018 (antibody, V domains shown)
VH: QVQLVQSGGGVVQPGRSLRLSCAASGFTFSNHGIHWVRQAPGKGLEWVAVISSDGTDTRDADSVRGRFTISRDNSRNTVYLDMNSLRAEDTAVYYCARDGRCGDERCYSGLPDVWGRGTRVSVSS
VL: EIVLTQSPATLSLSPGERATLSCRASQSVGGYLAWYQQKVGQAPRLLIYDASNRATGIPARFSGSGSGTDFTLTISSLEPEDFAVYYCQQRSNWPPLTFGGGTKVEIKR
notes: Fully human antibody; kappa light chain
B3: TRN1020 (antibody, V domains shown)
VH: EVQLVESGGGLAQPGGSLRLSCEASGFSFSTYAMSWVRQAPGKGLEWVAAVSGRGTSTFYLDSVKGRFTVSRDNSRTTVFLQMNSLKVEDTAFYYCAKDSYVGGSFDWLPRPDYFDHWGRGVLVTVSS
VL: QSVLTQPPSLSATPGQTVTISCSGSNSNIGKNYVSWYQQLPGAAPKLLLYNNNLRPSGIPARFSGSKSGTSATLGITGLQAGDEATYSCATWDKTLNFWVFGGGTKVTVLG
notes: Fully human antibody; lambda light chain

Legend:
[1] = target: T1, gB_Towne protein with N383 mutated into …; assay: indirect ELISA, antibody titrated on gB glycoprotein mutant
[2] = target: gB glycoprotein of HCMV standard strain Towne, on the virus (human cytomegalovirus, strain Towne, UniProt P13201 23-907); assay: cell-based or functional assay
Chain of gB glycoprotein of HCMV standard strain Towne, on the virus (P13201 23-907 limits assumed): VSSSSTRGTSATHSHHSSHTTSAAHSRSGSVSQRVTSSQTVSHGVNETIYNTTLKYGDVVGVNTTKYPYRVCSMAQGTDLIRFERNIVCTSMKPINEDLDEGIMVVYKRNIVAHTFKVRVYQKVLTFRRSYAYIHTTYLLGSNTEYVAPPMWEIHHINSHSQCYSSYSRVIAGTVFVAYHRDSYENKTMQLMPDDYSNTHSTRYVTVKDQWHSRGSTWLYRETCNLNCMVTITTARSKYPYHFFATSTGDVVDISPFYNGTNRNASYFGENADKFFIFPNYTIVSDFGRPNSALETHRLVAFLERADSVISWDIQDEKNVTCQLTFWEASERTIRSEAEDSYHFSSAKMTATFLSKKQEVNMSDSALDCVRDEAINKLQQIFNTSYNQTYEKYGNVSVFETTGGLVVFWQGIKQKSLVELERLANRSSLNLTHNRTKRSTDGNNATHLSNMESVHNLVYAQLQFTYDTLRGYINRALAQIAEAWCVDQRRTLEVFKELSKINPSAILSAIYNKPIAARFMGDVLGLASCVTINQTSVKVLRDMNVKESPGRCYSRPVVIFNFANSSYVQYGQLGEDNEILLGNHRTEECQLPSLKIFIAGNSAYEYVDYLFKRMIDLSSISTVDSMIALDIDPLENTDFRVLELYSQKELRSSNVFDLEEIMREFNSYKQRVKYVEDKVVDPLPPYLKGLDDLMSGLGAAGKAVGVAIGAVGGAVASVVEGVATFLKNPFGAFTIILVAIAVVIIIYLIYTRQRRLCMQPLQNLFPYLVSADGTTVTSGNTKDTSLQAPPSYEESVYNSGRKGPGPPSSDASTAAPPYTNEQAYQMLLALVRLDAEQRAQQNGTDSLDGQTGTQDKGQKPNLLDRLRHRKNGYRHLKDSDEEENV

[3] = target: T3, HCMV gB glycoprotein of standard strain Towne (gB_Towne strain) (human cytomegalovirus, strain Towne, UniProt F5HB53 25-700); assay: SPR (Biacore), antibody captured by anti-human IgG (Fc) on CM5 chip, gB in solution
T3 construct: also called antigen protein gB0049

[4] = target: T2, homologous sequence of gB glycoprotein …; assay: ELISA, HEK293 culture supernatant on gB

Binder	binding result [1]	EC50 of neutralizing Towne virus infection in primary HUVEC cells [2] [µg/mL]	Kd [3] [nM]	binding result [4]
B1	binds	0.089		
B2			27.9	binds
B3		0.041	0.6	binds
